{"source": "paper doi:10.1101/2025.01.28.635353", "about": "(2025)", "binders": {"B1": {"name": "aEGFR-R1-1 (antibody, V domains shown)", "VH": "EVKLQQSGDETMRPGASVRMSCKAYGYTFTDYSMHWIRQRPGQGLEWIGIIIPLIDTTRYNQKFKGKATLTADTSSDTAYMELSRLTFEDSAVYYCARSYDPSGDDWFAYWGQGTLVTVSS", "VL": "DTVLTQSPALSVSPGERVDISCRASESVSTLLHWYQQKPGQQPTLLISLASSLESGVPARFSGSGSGTDFTLTIDPVEADDTAIYYCQESWNEPYAFGAGTKLELK"}}, "molecular_target": "EGFR (UniProt P00533 25-1210)", "assay": "SPR; printed as pKD […]"}
{"binder": "B1", "values": [{"measurement": "Kd", "value": 126, "unit": "pM"}]}
